B1: sybody 95 (Sb95) (VHH)
VHH: QVQLVESGGGSVQAGGSLRLSCAASGNIYNIKYLGWFRQAPGKEREGVAALMTRYGETYYADSVKGRFTVSLDNAKNTVYLQMNSLKPEDTALYYCAAASYGANWPLVSAAYTYWGQGTQVTVS
notes: source: E. coli MC1061 F-, periplasmic extract, purified (Ni-NTA, desalted in PBS)
B2: sybody 23 (Sb23) (VHH)
VHH: QVQLVESGGGLVQAGGSLRLSCAASGFPVESENMHWYRQAPGKEREWVAAIYSTGGWTLYADSVKGRFTISRDNAKNTVYLQMNSLKPEDTAVYYCAVQVGYWYEGQGTQVTVS
notes: as for B1

Assays:
[1] = molecular target: T1, SARS-CoV-2 spike receptor-binding domain (2019-nCoV RBD-SD1, residues 319–566) (SARS-CoV-2, UniProt P0DTC2); assay: BLI; settings: both partners purified
[2] = molecular target: T1, SARS-CoV-2 spike receptor-binding …; assay: thermal shift (nanoDSF); settings: both partners purified

Binder	Kd [1]	increase of the melting temperature of RBD [2]
B1	43.9 nM	
B2	10.6 nM	~10 degrees

From paper PMC7642358 (Nature Communications, 2020)
